{"source": "patent US7943358B2", "about": "“Polymerase enhancing factor (PEF) extracts, PEF protein complexes, isolated PEF protein, and methods for purifying and identifying” (Agilent Technologies, Inc., priority 1997, dated 2011)", "molecules": {"B1": {"name": "PEF: polymerase enhancing factor complex purified from Pyrococcus furiosus; predominant components P50 and P45 (protein)", "chain 1": "MLHHVKLIYATKSRKLVGKKIVXXXPGSIAALDVKACEGLIRHGAEVHAVMSEAATKIIHPYAWNLPTGNPVITEITGFIEHVELAGEHENKADLILVCPATANTISKIACGIDDTPVTTVVTTAFPHIPIMIAPAMHETMYRHPIVRENIERLKKLGVEFIGPRIEEGRAKVASIDEIVYRVIKKLHKKTLEGKRVLVTAGATREYIDPIRFITNASSGKMGVALAEEADFRGAVTLIRTKGSVKAFRIRKIKLKVETVEEMLSAIENELRSKKYDVVIMAAAVSDFRPKIKAEGKIKSGRSITIELVPXNPKIIDRIKEIQPNVFLVGFKAETSKEKLIEEGKRQIERAKADLVVGNTLEAFGSEENQVVLIGRDFTKELPKMKKRELAERIWDEIEKXLS", "chain 2": "MLLPDWKIRKEILIEPFSEESLQPAGYDLRVGREAFVKGKLIDVEKEGKVVIPPREYALILTLERIKLPDDVMGDMKIRSSLAREGVIGSFAWVDPGWDGNLTLMLYNASNEPVELRYGERFVQIAFIRLEGPARNPYRGNYQGSTRLAFSKRKKL", "modifications": "not fully specified; X: residue not identified in the source", "notes": "polymerase enhancing factor complex purified from Pyrococcus furiosus; predominant components P50 and P45"}}, "type_in_all_cases": "biochemical", "key": {"[1]": {"assay": "PPi production from dUTP (dUTPase activity), Sigma Enzymatic Determination of Pyrophosphate kit", "protocol": "In experiments to investigate whether PPi is formed during the reaction, 900 or 1800 ng of PEF was incubated with 10 mM dUTP in 1× cloned Pfu polymerase buffer for 1 hour at 72° C. The presence of PPi in the reaction mixture was then quantified using Sigma's Enzymatic Determination of Pyrophosphate kit (Sigma Product No. P7275). The kit utilizes a coupled enzyme system whereby two moles of NADH are oxidized to NAD^+ for each mole of PPi present in the reaction mixture. The oxidation of NADH is monitored spectrophotometrically at 340 nm. […] The reactions that contained 1800 ng of PEF produced twice as much PPi as those that contained 900 ng of PEF.\nThe temperature optimum (Topt) for the generation of PPi from dUTP was measured by incubating mixtures of dUTP and native PEF at temperatures ranging from 73° C. to 99° C. PPi production by native PEF increased steadily over this temperature range and was highest at 99° C. […]\nThe enzyme activity of three different preparations of S200-purified native PEF was measured at 85° C. Protein concentrations were determined by both Bradford and by amino acid analysis. Shown below is a summary of the enzyme activity and specific activity (protein concentration determined by Bradford or AAA as indicated) of S200-purified native PEF. […]"}, "Pfu DNA polymerase": {"molecular_target": "T1, Pfu DNA polymerase (Pyrococcus furiosus, UniProt P61875)", "T1 sequence (P61875 1-775)": "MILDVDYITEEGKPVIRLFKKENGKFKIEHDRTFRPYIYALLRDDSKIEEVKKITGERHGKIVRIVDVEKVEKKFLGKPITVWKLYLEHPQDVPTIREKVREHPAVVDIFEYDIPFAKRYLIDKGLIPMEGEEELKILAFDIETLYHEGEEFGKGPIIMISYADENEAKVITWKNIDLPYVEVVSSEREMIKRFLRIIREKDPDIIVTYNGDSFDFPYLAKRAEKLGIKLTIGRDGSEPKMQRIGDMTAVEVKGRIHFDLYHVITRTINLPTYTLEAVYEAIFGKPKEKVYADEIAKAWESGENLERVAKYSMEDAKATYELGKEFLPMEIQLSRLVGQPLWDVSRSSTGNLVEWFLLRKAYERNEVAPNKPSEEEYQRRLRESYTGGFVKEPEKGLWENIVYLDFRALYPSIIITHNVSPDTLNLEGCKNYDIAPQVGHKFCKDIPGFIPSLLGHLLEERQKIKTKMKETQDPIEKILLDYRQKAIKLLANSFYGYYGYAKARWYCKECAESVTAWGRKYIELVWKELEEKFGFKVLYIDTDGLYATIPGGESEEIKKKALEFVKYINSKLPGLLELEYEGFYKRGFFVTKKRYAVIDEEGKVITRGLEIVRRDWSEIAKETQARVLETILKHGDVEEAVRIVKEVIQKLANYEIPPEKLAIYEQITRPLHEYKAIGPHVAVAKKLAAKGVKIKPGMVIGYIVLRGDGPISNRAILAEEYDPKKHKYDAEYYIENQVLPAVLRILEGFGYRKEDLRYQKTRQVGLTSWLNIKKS", "assay": "0.9 kb α1-antitrypsin PCR with unrelated dU-containing or control oligonucleotide", "details": "0.8 pmole of dU containing primer; 7 ng PEF"}, "[2]": {"assay": "PPi detection with dATP in place of dUTP", "details": "1 hour at 72° C.", "protocol": "[…] The presence of PPi in the reaction mixture was then quantified using Sigma's Enzymatic Determination of Pyrophosphate kit (Sigma Product No. P7275). The kit utilizes a coupled enzyme system whereby two moles of NADH are oxidized to NAD^+ for each mole of PPi present in the reaction mixture. The oxidation of NADH is monitored spectrophotometrically at 340 nm. […] The reactions that contained 1800 ng of PEF produced twice as much PPi as those that contained 900 ng of PEF."}}}
{"molecule": "B1", "values": [{"measurement": "PPi production from dUTP (in words)", "setting": "[1]", "result": "clearly established"}, {"measurement": "temperature optimum (Topt) for the generation of PPi from dUTP", "setting": "[1]; tested from 73° C. to 99° C.", "result": "> 99", "unit": "°C"}, {"measurement": "amplification in reactions containing dU oligo with PEF", "setting": "Pfu DNA polymerase", "result": "a small amount of amplification product is observed"}, {"measurement": "PPi detected with dATP in place of dUTP", "setting": "[2]", "result": "No PPi was detected"}]}
